Measured values as given in the Human Domainome abundance scans (Beltran et al. 2025).
± gives the uncertainty stated by the source.

assay: abundance fitness (aPCA) (normalised: wild type 0, dead -1); higher = more abundant; growth selection in yeast, the domain comes from the species named; conditions: Homo sapiens

Row | Substance | abundance fitness
1 | Scaffold attachment factor B1 P72A, Q15424 | -0.187 ± 0.07
2 | Scaffold attachment factor B1 P72I, Q15424 | -0.382 ± 0.11
3 | Scaffold attachment factor B1 E74P, Q15424 | -0.309 ± 0.063
4 | Scaffold attachment factor B1 S50K, Q15424 | -0.558 ± 0.11
5 | Scaffold attachment factor B1 I65S, Q15424 | -0.577 ± 0.058
6 | Scaffold attachment factor B1 V48G, Q15424 | -0.195 ± 0.057
7 | Scaffold attachment factor B1 L57P, Q15424 | -0.62 ± 0.074
8 | Scaffold attachment factor B1 S50E, Q15424 | -0.278 ± 0.078
9 | Scaffold attachment factor B1 G27H, Q15424 | -0.692 ± 0.14
10 | Scaffold attachment factor B1 R44Q, Q15424 | -0.074 ± 0.071
11 | Scaffold attachment factor B1 K62H, Q15424 | -0.211 ± 0.066
12 | Scaffold attachment factor B1 L43P, Q15424 | -1.1 ± 0.11
13 | Scaffold attachment factor B1 R46W, Q15424 | -0.8 ± 0.062
14 | Scaffold attachment factor B1 E42F, Q15424 | -0.587 ± 0.076
15 | Gamma-crystallin C L167W, P07315 | -0.575 ± 0.23
16 | Scaffold attachment factor B1 G69D, Q15424 | -0.422 ± 0.17
17 | Scaffold attachment factor B1 T28L, Q15424 | -0.261 ± 0.07
18 | Scaffold attachment factor B1 E42Q, Q15424 | -0.26 ± 0.083
19 | Scaffold attachment factor B1 V36T, Q15424 | -0.134 ± 0.082
20 | Scaffold attachment factor B1 R46F, Q15424 | -0.545 ± 0.069
21 | Scaffold attachment factor B1 E59V, Q15424 | -0.125 ± 0.046
22 | Scaffold attachment factor B1 S79P, Q15424 | -0.108 ± 0.06

Row | Substance | abundance fitness
23 | Scaffold attachment factor B1 S55I, Q15424 | -0.261 ± 0.09
24 | Scaffold attachment factor B1 R30E, Q15424 | -0.252 ± 0.06
25 | Scaffold attachment factor B1 T26P, Q15424 | -0.565 ± 0.16
26 | Scaffold attachment factor B1 P72W, Q15424 | -0.296 ± 0.068
27 | Scaffold attachment factor B1 T28H, Q15424 | -0.434 ± 0.09
28 | Scaffold attachment factor B1 A41Q, Q15424 | -0.257 ± 0.072
29 | Scaffold attachment factor B1 L57H, Q15424 | -0.842 ± 0.1
30 | Scaffold attachment factor B1 D67I, Q15424 | -0.257 ± 0.079
31 | Scaffold attachment factor B1 I65N, Q15424 | -0.598 ± 0.089
32 | Scaffold attachment factor B1 V56F, Q15424 | -0.414 ± 0.072
33 | Scaffold attachment factor B1 G70C, Q15424 | -0.259 ± 0.058
34 | Scaffold attachment factor B1 K63C, Q15424 | -0.234 ± 0.048
35 | Scaffold attachment factor B1 L57D, Q15424 | -0.202 ± 0.061
36 | Scaffold attachment factor B1 L61S, Q15424 | -0.508 ± 0.062
37 | Scaffold attachment factor B1 S79T, Q15424 | -0.129 ± 0.062
38 | Scaffold attachment factor B1 S79N, Q15424 | -0.264 ± 0.091
39 | Scaffold attachment factor B1 E66P, Q15424 | -0.909 ± 0.097
40 | Scaffold attachment factor B1 R46E, Q15424 | -0.954 ± 0.1
41 | Scaffold attachment factor B1 R30K, Q15424 | -0.037 ± 0.066
42 | Scaffold attachment factor B1 R29Q, Q15424 | -0.222 ± 0.089
43 | Scaffold attachment factor B1 G70A, Q15424 | -0.278 ± 0.061
44 | Scaffold attachment factor B1 L43A, Q15424 | -0.225 ± 0.066

Row | Substance | abundance fitness
45 | Scaffold attachment factor B1 L57F, Q15424 | -1.21 ± 0.1
46 | Scaffold attachment factor B1 I37C, Q15424 | -0.281 ± 0.072
47 | Scaffold attachment factor B1 G27P, Q15424 | -0.519 ± 0.11
48 | Scaffold attachment factor B1 M58I, Q15424 | -0.151 ± 0.071
49 | Scaffold attachment factor B1 K54R, Q15424 | -0.063 ± 0.047
50 | Scaffold attachment factor B1 A64H, Q15424 | -0.132 ± 0.082
51 | Scaffold attachment factor B1 G52S, Q15424 | -0.786 ± 0.057
52 | Scaffold attachment factor B1 L57S, Q15424 | -0.584 ± 0.052
53 | Scaffold attachment factor B1 M58S, Q15424 | -0.16 ± 0.064
54 | Scaffold attachment factor B1 A41E, Q15424 | -0.049 ± 0.062
55 | Scaffold attachment factor B1 I65A, Q15424 | -0.596 ± 0.069
56 | Scaffold attachment factor B1 R60S, Q15424 | -0.321 ± 0.076
57 | Scaffold attachment factor B1 E80W, Q15424 | -0.409 ± 0.15
58 | Scaffold attachment factor B1 R35H, Q15424 | -0.475 ± 0.089
59 | Scaffold attachment factor B1 D73H, Q15424 | -0.443 ± 0.098
60 | Scaffold attachment factor B1 K54M, Q15424 | -0.443 ± 0.087
61 | Scaffold attachment factor B1 V48R, Q15424 | -0.078 ± 0.057
62 | Scaffold attachment factor B1 M58P, Q15424 | -0.598 ± 0.1
63 | Scaffold attachment factor B1 K54S, Q15424 | -0.259 ± 0.072
64 | Scaffold attachment factor B1 S55M, Q15424 | -0.12 ± 0.072
65 | Scaffold attachment factor B1 K63F, Q15424 | -0.432 ± 0.061
66 | Scaffold attachment factor B1 V56C, Q15424 | -0.177 ± 0.095

Row | Substance | abundance fitness
67 | Scaffold attachment factor B1 E74Y, Q15424 | -0.226 ± 0.09
68 | Scaffold attachment factor B1 L61Y, Q15424 | -0.351 ± 0.072
69 | Scaffold attachment factor B1 S50Y, Q15424 | -0.248 ± 0.074
70 | Scaffold attachment factor B1 K45R, Q15424 | 0.218 ± 0.2
71 | Scaffold attachment factor B1 G27E, Q15424 | -0.068 ± 0.062
72 | Scaffold attachment factor B1 D49M, Q15424 | -0.464 ± 0.062
73 | Scaffold attachment factor B1 I75V, Q15424 | -0.113 ± 0.049
74 | Scaffold attachment factor B1 L61P, Q15424 | -0.583 ± 0.09
75 | Scaffold attachment factor B1 S51G, Q15424 | -0.111 ± 0.058
76 | Scaffold attachment factor B1 L43G, Q15424 | -0.752 ± 0.05
77 | Scaffold attachment factor B1 S55W, Q15424 | -0.287 ± 0.056
78 | Scaffold attachment factor B1 L34G, Q15424 | -0.576 ± 0.056
79 | Scaffold attachment factor B1 G69S, Q15424 | -0.397 ± 0.071
80 | Scaffold attachment factor B1 I37V, Q15424 | -0.15 ± 0.06
81 | Scaffold attachment factor B1 R44P, Q15424 | -0.715 ± 0.075
82 | Scaffold attachment factor B1 R46Q, Q15424 | -0.734 ± 0.089
83 | Scaffold attachment factor B1 E66T, Q15424 | -0.11 ± 0.076
84 | Scaffold attachment factor B1 S55V, Q15424 | -0.081 ± 0.055
85 | Scaffold attachment factor B1 K62W, Q15424 | -0.366 ± 0.065
86 | Scaffold attachment factor B1 S79R, Q15424 | -0.25 ± 0.081
87 | Scaffold attachment factor B1 E76T, Q15424 | -0.195 ± 0.073
88 | Scaffold attachment factor B1 G52H, Q15424 | -1.02 ± 0.15

Row | Substance | abundance fitness
89 | Scaffold attachment factor B1 R30V, Q15424 | -0.493 ± 0.052
90 | Scaffold attachment factor B1 L31W, Q15424 | -0.628 ± 0.052
91 | Scaffold attachment factor B1 I75T, Q15424 | -0.194 ± 0.064
92 | Scaffold attachment factor B1 M58F, Q15424 | -0.204 ± 0.075
93 | Scaffold attachment factor B1 L61E, Q15424 | -0.484 ± 0.06
94 | Scaffold attachment factor B1 G69I, Q15424 | -0.376 ± 0.084
95 | Scaffold attachment factor B1 D33N, Q15424 | -0.291 ± 0.068
96 | Scaffold attachment factor B1 I75K, Q15424 | -0.253 ± 0.06
97 | Scaffold attachment factor B1 E80T, Q15424 | -0.675 ± 0.2
98 | Scaffold attachment factor B1 E76L, Q15424 | -0.199 ± 0.062
99 | Scaffold attachment factor B1 A41H, Q15424 | -0.449 ± 0.11
100 | Scaffold attachment factor B1 L39T, Q15424 | -0.983 ± 0.091
101 | Scaffold attachment factor B1 V56G, Q15424 | -0.305 ± 0.063
102 | Scaffold attachment factor B1 E59K, Q15424 | -0.152 ± 0.084
103 | Scaffold attachment factor B1 R46S, Q15424 | -0.763 ± 0.068
104 | Scaffold attachment factor B1 M58Y, Q15424 | -0.341 ± 0.079
105 | Scaffold attachment factor B1 R60V, Q15424 | -0.432 ± 0.069
106 | Scaffold attachment factor B1 D49F, Q15424 | -0.762 ± 0.13
107 | Scaffold attachment factor B1 L43I, Q15424 | -1.02 ± 0.091
108 | Scaffold attachment factor B1 D33M, Q15424 | -0.235 ± 0.055
109 | Scaffold attachment factor B1 L34C, Q15424 | -0.321 ± 0.079
110 | Scaffold attachment factor B1 S32M, Q15424 | -0.21 ± 0.067
